The results in this text go back to US20040132157A1.

Series [1] has as its target recombinant human ADAM protein (metalloprotease region and disintegrin region expressed in Escherichia coli from plasmid pMDH) (human) (UniProt Q9UKQ2). Kind of series: cell-based or functional assay.
The target in series [2] is T1, Nma-Pro-Lys-Pro-Leu-Ala-Nva-Trp-Lys(DNP)-NH2.
T1 chain: PKPLAXWK

Series [3] concerns the target T2, MOCAc-Arg-Pro-Lys-Pro-Tyr-Ala-Nva-Trp-Met-Lys(DNP)-NH2.
T2 chain: RPKPYAXWMK

Take “N-CBZ-Pro-Leu-Gly-hydroxamate (Sigma C8537) (peptide)”: the IC50 value (concentration of a test compound which 50% inhibits the protease activity) in series [1] worked out at 100 µM.

B1: recombinant human ADAM protein (metalloprotease region and disintegrin region expressed in Escherichia coli from plasmid pMDH) (protein)
chain: VQEHEKYIEYYLVLDNGEFKRYNENQDEIRKRVFEMANYVNMLYKKLNTHVALVGMEIWTDKDKIKITPNASFTLENFSKWRGSVLSRRKRHDIAQLITATELAGTTVGLAFMSTMCSPYSVGVVQDHSDNLLRVAGTMAHEMGHNFGMFHDDYSCKCPSTICVMDKALSFYIPTDFSSCSRLSYDKFFEDKLSNCLFNAPLPTDIISTPICGNQLVEMGEDCDCGTSEECTNICCDAKTCKIKATFQCALGECCEKCQFKKAGMVCRPAKDECDLPEMCNGKSGNCPDDRFQVNGF
Regarding B1, in series [2], the “fluorescent intensity (excitation 340 nm, measuring 450 nm) after 2 hours at 37 C” value is “the fluorescent intensity in the case of addition of the enzyme solution was 180”. The “fluorescent intensity (excitation 328 nm, 393 nm) after 22 hours at 37 C” value in series [3] was “the fluorescent intensity of 70 was shown when the protein was added”.
